In test [1] the target is IgE on basophils of allergic donors (human) (UniProt P01854). Put plainly: IgE surface stain on donor basophils, flow cytometry.
Test [2] concerns the target mixture of three Der p 2 specific recombinant human IgE clones H10, H12, P4E (human) (UniProt P01854). Nature of the test: RBL-SX38 IgE displacement, FACS.
Test [3] has as its target IgE on basophils of allergic donors (human) (UniProt P01854). Put plainly: displacement of IgE from FcεRI on basophils, whole blood of an allergic donor, flow cytometry of surface IgE [panel C].
Test [4] has the same target. Put plainly: displacement of IgE from FcεRI on basophils, whole blood of an allergic donor, flow cytometry of surface IgE [panel B].
The target is the same in test [5]. Nature of the test: cell-based or functional assay.
The target is the same in test [6]. Nature of the test: IgE surface stain on donor basophils after 1 µM sdAb, flow cytometry.

Chain of mixture of three Der p 2 specific recombinant human IgE clones H10, H12, P4E (human) (P01854 other isoform, or with tags, fused parts or gaps): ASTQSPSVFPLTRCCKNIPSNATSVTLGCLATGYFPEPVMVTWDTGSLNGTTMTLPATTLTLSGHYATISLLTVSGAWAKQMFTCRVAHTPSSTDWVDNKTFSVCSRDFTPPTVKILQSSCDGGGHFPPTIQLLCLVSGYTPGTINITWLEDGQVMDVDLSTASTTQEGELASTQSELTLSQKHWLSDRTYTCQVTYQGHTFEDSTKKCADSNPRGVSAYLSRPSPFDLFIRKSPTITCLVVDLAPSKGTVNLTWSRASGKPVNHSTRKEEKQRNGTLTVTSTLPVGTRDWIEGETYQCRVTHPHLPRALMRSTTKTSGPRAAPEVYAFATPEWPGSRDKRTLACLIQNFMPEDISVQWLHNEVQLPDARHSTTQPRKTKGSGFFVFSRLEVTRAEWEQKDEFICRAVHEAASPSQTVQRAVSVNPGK
Chain of IgE on basophils of allergic donors (human) (P01854 1-428): as the sequence (P01854 other isoform, or with tags, fused parts or gaps) above, with K428L counted along it

B1: A2+B1 (protein)
VHH 1: EVQLLESGGGLVQPGGSLRLSCAASGFRFGNYDMAWVRQAPGKRYEWVSSIDTGGDITHYADSVKGRFTISRDNAKNTLYLQMNSLRPEDTAEYWCATDEEYALGPNEFDYYGQGTLVTVS
VHH 2: QVQLQESGGGLVQTGGSLRLSCAVHGRTFSNTGMGWFRQAPGNERQFVAIISPSGTSTYYADSVKGRFTISRDPAKNTVYLQMNSLKMDDTAVYYCAASYGSNWSTLRHQRRNEYDAWGQGTQVAVS
B1 returned a displacement effect on IgE surface expression in test [1] of 100%.

B2: A2+B2 (protein)
VHH 1: B1 VHH 1
VHH 2: QVQLVESGGGLVQAGGSLRLSCAVFGSTFSNNVADWYRQAPGKQRELVARISASGATREYGDSVKGRFTISRDDAKNTMYLQMNNLKPEDTAVYRCHKIEWEDLSRKDYWGQGTQVTVS
Consider B2, for which the displacement effect on IgE surface expression in test [1] amounted to 100%.

B3: sdAb A2 (VHH)
VHH: B1 VHH 1
Turning to B3, the displacement effect on IgE surface expression in test [1] came out at 70%.

B4: A2+B3 (protein)
VHH 1: B1 VHH 1
VHH 2: DVQLQESGGGLVQAGGSLRLSCAASGFIFRLAGMSWVRQAPGKGFEWVSGITMDGSTTNYADSVKGRFTISRDNSKNRLYLQMNSLKPEDTAVYYCARGAKGGYNDPRGQGTQVTVS
Take B4: in test [1], the displacement effect on IgE surface expression worked out at 70%.

B5: CIgG4B1A1(G4S3) (Fc fusion)
chain 1: GPPCPPCPAPEFLGGPSVFLFPPKPKDTLMISRTPEVTCVVVDVSQEDPEVQFNWYVDGVEVHNAKTKPREEQFNSTYRVVSVLTVLHQDWLNGKEYKCKVSNKGLPSSIEKTISKAKGQPREPQVYTLPPCQEEMTKNQVSLWCLVKGFYPSDIAVEWESNGQPENNYKTTPPVLDSDGSFFLYSRLTVDKSRWQEGNVFSCSVMHEALHNHYTQKSLSLSLGKGGGGSGGGGSGGGGSQVQLQESGGGLVQTGGSLRLSCAVHGRTFSNTGMGWFRQAPGNERQFVAIISPSGTSTYYADSVKGRFTISRDPAKNTVYLQMNSLKMDDTAVYYCAASYGSNWSTLRHQRRNEYDAWGQGTQVAVS
chain 2: GPPCPPCPAPEFLGGPSVFLFPPKPKDTLMISRTPEVTCVVVDVSQEDPEVQFNWYVDGVEVHNAKTKPREEQFNSTYRVVSVLTVLHQDWLNGKEYKCKVSNKGLPSSIEKTISKAKGQPREPQVCTLPPSQEEMTKNQVSLSCAVKGFYPSDIAVEWESNGQPENNYKTTPPVLDSDGSFFLVSRLTVDKSRWQEGNVFSCSVMHEALHNHYTQKSLSLSLGKGGGGSGGGGSGGGGSEVQLLESGGGLVQPGGSLRLSCAASGFTFGNYDMAWVRQAPGKRPEWVSSIDTGGDITHYADSVKGRFTISRDNAKNTLYLQMNSLRPEDTAVYWCATDEEYALGPNEFDYYGQGTLVTVSS
Consider B5, for which, in test [2], the EC50 was 14.1 nM and the Max effect/effect 1 µM was found to be 99%. In addition, the EC50 (read off the curve) in test [3] turned out to be 4 nM. Moreover, the EC50 (read off the curve) in test [4] came to 6 nM.

B6: sdAb A1 (VHH)
VHH: EVQLLESGGGLVQPGGSLRLSCAASGFTFGNYDMAWVRQAPGKRPEWVSSIDTGGDITHYADSVKGRFTISRDNAKNTLYLQMNSLRPEDTAVYWCATDEEYALGPNEFDYYGQGTLVTVSS
B6 came in with a fold decrease in rDerp2-induced activation of basophils of a HDM allergic donor (% CD63 pos basophils) in test [5] of 10 fold. Moreover, in test [2], the Max effect/effect 1 µM turned out to be 40%. The molecule also gave a displacement effect measured by IgE expression in test [6] of 16%.

Source of the values: patent publication US20250171562A1.
